Results: US7294472B2, “Method for identifying modulators of G protein coupled receptor signaling” (Caden Biosciences, priority 2001, dated 2007)

Assays:
PAR1 = biological target: T1, PAR1 (Homo sapiens, UniProt P25116); assay: Binding of MBP-Gαq to purified, reconstituted activated PAR1 (ELISA); design: made in house; host or cells: Sf9 insect cells infected with ThR/pBluebac recombinant virus, purified on an anti-PAR1 monoclonal antibody column; conditions: purified reconstituted PAR1 with thrombin receptor activating peptide
T1 sequence (P25116 22-425): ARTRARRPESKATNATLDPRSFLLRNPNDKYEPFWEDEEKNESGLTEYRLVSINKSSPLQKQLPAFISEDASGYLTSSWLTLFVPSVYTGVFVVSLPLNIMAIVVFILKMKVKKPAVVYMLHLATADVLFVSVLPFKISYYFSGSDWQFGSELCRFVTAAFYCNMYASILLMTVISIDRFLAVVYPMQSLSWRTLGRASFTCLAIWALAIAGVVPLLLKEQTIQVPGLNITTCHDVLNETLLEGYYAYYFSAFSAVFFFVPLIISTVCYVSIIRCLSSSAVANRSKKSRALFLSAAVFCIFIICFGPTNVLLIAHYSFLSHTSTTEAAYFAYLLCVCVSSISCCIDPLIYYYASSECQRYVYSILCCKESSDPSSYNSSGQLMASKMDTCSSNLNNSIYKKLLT
Procedure: Microtiter wells were coated with purified, reconstituted PAR1 in the presence of […] thrombin receptor activating peptide, as described above in Example 6. Purified maltose binding protein-Gαq (MBP-Gαq) was added at the concentrations indicated in FIG. 11 and incubated one hour on a shaker at 4° C. The wells were rinsed and then probed with a rabbit anti-maltose binding protein antibody, followed by alkaline phosphatase conjugated secondary antibodies, as described above. Substrate was added and the color was allowed to develop about 20 minutes. Absorbance at 405 nm was measured and dose-response curves were calculated using GraphPad Prism (version 2.0). See results in FIG. 11.

rhodopsin = biological target: T2, rhodopsin (Bos taurus, UniProt P02699); assay: "extra MII" assay: stabilization of metarhodopsin II; type: biochemical, bovine
T2 construct: Bovine rod outer segments (rhodopsin-containing membranes) were prepared from fresh retinas; from tissue; host or cells: bovine retina, rod outer segment membranes (EDTA- and urea-washed)
Excerpt: Rhodopsin can be measured spectrophotometrically in many of its conformational states. The high affinity, biologically active rhodopsin state can be easily differentiated from its precursor, MI, by the “extra” MII assay. See Example 35. This assay relies on the observation that under conditions of high pH and low temperature, MII is stabilized in the presence of Gt and can be spectrophotometrically measured. The ability of the C-terminal peptide to stabilize Meta II in the same manner as the heterotrimeric Gt, provides the tools to investigate the structural basis of the interaction of G proteins with the agonist binding sites of activated receptors.
For the “extra MII” assay, EDTA-washed rhodopsin (Example 5; 5 μM) is incubated in a 50 mM HEPES buffer, pH 8.2, with 100 mM NaCl, 1 mM MgCl2, and 1 mM DTT at 5.3° C., in the absence or presence of varying concentrations of Gt340-350 analogs or Gt. The sample is maintained at 5.4° C. using a water-jacketed and thermostated circulator cuvette holder in an SLM Aminco DW2000 spectrophotometer at 390 and 440 nm. A flash of light bleaching 10% of the rhodopsin is presented and after a 1 min incubation, a second spectrum is measured and the difference in spectrum calculated. “Extra” MII is calculated as the difference between the absorbance at 390 and 440. Dose response curves of MII stabilization by αt340350 (λ), mutant α340-350K341L(ν), and heterotrimeric Gt (v) were analyzed by non-linear regression using the program GraphPad PRISM and are shown in FIG. 23.
EDTA-washed rhodopsin (5 μM) was incubated in a 50 mM HEPES buffer, pH 8.2, with 100 mM NaCl, 1 mM MgCl2, and 1 mM DTT at 5.3° C., and “extra” MII was measured. For compounds that enhanced MBP-8 binding over 25% using the color coded readout, dose studies were performed to generate EC50 curves. Table XXII below provides the calculated EC50 for metarhodopsin II stabilization of each compound.

[1] = biological target: T3, light-activated rhodopsin (Bos taurus, UniProt P02699); assay: Competition of heterotrimeric Gt with MBP high affinity peptide fusion proteins for rhodopsin; type: binding, bovine; conditions: 1 μM heterotrimeric Gt
T3 construct: Bovine rod outer segments (rhodopsin-containing membranes) were prepared from fresh retinas; from tissue; host or cells: bovine retina, rod outer segment membranes (EDTA- and urea-washed)
Procedure: When light-activated rhodopsin was screened for peptides based on the C-terminus of Gt, a large number of high-affinity sequences were obtained. Binding of MBP fusion proteins containing the high affinity peptide from the library (sequences from clones 8, 9, 10, 18, 23, 24, as well as pELM17 which encodes the wild-type peptide sequence, and pELM6 which contains no peptide; MBP-8, MBP-9, MBP-10, MBP-18, MBP-23, MBP-24, MBP-pELM17) were assessed for their ability to bind rhodopsin (0.5 μg rhodopsin/well) in the presence or absence of heterotrimeric Gt.
Lysate (50 μl) from each clone was added and incubated in the light. After 45 minutes, 1 μM heterotrimeric Gt was added and the solution incubated for 30 minutes. Anti-MBP antibody was added, followed by goat anti-rabbit alkaline phosphatase conjugated antibody and substrate. The color was allowed to develop.

T3 sequence (P02699 whole entry, the tested form may be a part): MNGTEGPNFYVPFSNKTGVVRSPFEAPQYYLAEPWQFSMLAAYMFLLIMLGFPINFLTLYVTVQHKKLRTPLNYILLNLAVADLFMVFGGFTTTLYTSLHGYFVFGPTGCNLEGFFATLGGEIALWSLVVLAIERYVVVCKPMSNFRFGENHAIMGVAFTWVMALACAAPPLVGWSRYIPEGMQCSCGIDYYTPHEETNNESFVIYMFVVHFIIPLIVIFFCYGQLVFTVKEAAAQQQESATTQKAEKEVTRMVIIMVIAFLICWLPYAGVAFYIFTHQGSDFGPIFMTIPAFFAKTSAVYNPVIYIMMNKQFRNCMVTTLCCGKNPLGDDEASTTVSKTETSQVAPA
T2 sequence (P02699 whole entry): as the sequence (P02699 whole entry, the tested form may be a part) above

IC50 (PAR1) | stabilization of MII (in words) (rhodopsin) | effect on high affinity peptide fusion protein binding to light-activated rhodopsin (in words) [1] | Substance
214 nM | – | – | MBP-Gαq: purified maltose binding protein fused to native Gαq C-terminal peptide
– | stabilize the active form of rhodopsin | competitively inhibited | heterotrimeric Gt: heterotrimeric G protein, transducin (Gt) [reference compound]
